Data published in the Human Domainome abundance scans (Beltran et al. 2025).
± gives the uncertainty stated by the source.

B1: Cold shock protein CspB, residues 1 to 66; numbered along this chain, P41016 (parent)
chain: MQRGKVKWFNNEKGYGFIEVEGGSDVFVHFTAIQGEGFKTLEEGQEVSFEIVQGNRGPQAANVVKL

Variants of: B1
Assay: abundance fitness (aPCA) (normalised: wild type 0, dead -1); higher = more abundant; growth selection in yeast, the domain comes from the species named
Conditions: Bacillus caldolyticus

Abundance fitness, by site and new letter:
G37: Q -0.078 ± 0.056; Y -0.074 ± 0.059; E -0.05 ± 0.043; L -0.126 ± 0.029; P -0.119 ± 0.048; V -0.086 ± 0.033; R -0.083 ± 0.034; T -0.069 ± 0.041; I -0.18 ± 0.054; M -0.117 ± 0.034; S -0.072 ± 0.034; F -0.153 ± 0.055; D -0.133 ± 0.074; C -0.049 ± 0.048; W -0.141 ± 0.041; A -0.082 ± 0.035; H -0.036 ± 0.048
G23: H -0.053 ± 0.08; V -0.021 ± 0.038; R 0.028 ± 0.037; D 0.026 ± 0.073; M 0 ± 0.048; A 0.03 ± 0.046; S 0.011 ± 0.034; Q 0.012 ± 0.055; C 0.029 ± 0.059; N -0.066 ± 0.081; Y -0.061 ± 0.048; T 0.003 ± 0.052; L -0.003 ± 0.027; P -0.011 ± 0.045; K 0.052 ± 0.057; F -0.034 ± 0.049; W -0.057 ± 0.04; I -0.041 ± 0.055
V26: F -0.11 ± 0.054; I -0.017 ± 0.045; R -0.248 ± 0.032; W -0.23 ± 0.035; C -0.053 ± 0.048; S -0.195 ± 0.029; D -0.529 ± 0.06; P -0.566 ± 0.038; M -0.056 ± 0.043; Q -0.173 ± 0.04; K -0.251 ± 0.059; H -0.132 ± 0.075; E -0.372 ± 0.043; G -0.573 ± 0.036; Y -0.074 ± 0.054
T40: W -0.076 ± 0.051; Y -0.037 ± 0.051; G -0.048 ± 0.042; K -0.065 ± 0.048; V -0.043 ± 0.041; E -0.027 ± 0.061; A -0.022 ± 0.038; Q -0.041 ± 0.041; L -0.087 ± 0.026; M -0.04 ± 0.04; C -0.006 ± 0.062; I -0.032 ± 0.044; N -0.078 ± 0.048; D -0.112 ± 0.052; S -0.023 ± 0.034; H -0.064 ± 0.047; P -0.227 ± 0.036; F -0.009 ± 0.055; R -0.043 ± 0.032
L41: D -0.554 ± 0.069; A -0.111 ± 0.041; C -0.121 ± 0.054; E -0.482 ± 0.044
A32: D -0.129 ± 0.055; Q 0.023 ± 0.055; W -0.351 ± 0.05; F -0.129 ± 0.058; M -0.103 ± 0.048; C -0.083 ± 0.048; L -0.472 ± 0.025; P -0.507 ± 0.043; S -0.032 ± 0.034; I -0.666 ± 0.068; T -0.105 ± 0.039; N -0.045 ± 0.058; G -0.02 ± 0.037; K -0.044 ± 0.049; Y -0.263 ± 0.063; R -0.084 ± 0.036; H -0.099 ± 0.061
G35: N -0.06 ± 0.11; M 0.002 ± 0.035; K -0.112 ± 0.056; V -0.033 ± 0.037; T -0.084 ± 0.054; Q 0.001 ± 0.045; C 0.02 ± 0.069; D -0.004 ± 0.076; E -0.001 ± 0.038; W -0.134 ± 0.044; R -0.111 ± 0.033; I -0.108 ± 0.061; F -0.067 ± 0.059; S -0.035 ± 0.039; Y -0.068 ± 0.074; L -0.127 ± 0.025; P -0.172 ± 0.045
T31: N -0.127 ± 0.066; D -0.141 ± 0.11; Q -0.132 ± 0.061; G -0.079 ± 0.044; F -0.431 ± 0.052; A -0.134 ± 0.049; Y -0.3 ± 0.055; I -0.314 ± 0.053; V -0.345 ± 0.043; H -0.074 ± 0.077; K -0.066 ± 0.054; C -0.146 ± 0.05; W -0.289 ± 0.035; R -0.044 ± 0.028; S -0.011 ± 0.032; M -0.13 ± 0.044; E -0.087 ± 0.068
S24: C -0.029 ± 0.041; V -0.016 ± 0.039; D -0.002 ± 0.071; Y -0.016 ± 0.084; H 0.007 ± 0.072; L -0.002 ± 0.033; I -0.033 ± 0.081; W -0.031 ± 0.039; Q -0.004 ± 0.055; M -0.019 ± 0.055; A -0.011 ± 0.055; R 0.01 ± 0.029; T 0.003 ± 0.047; K 0.015 ± 0.049; P 0.012 ± 0.057; N 0.004 ± 0.081; F -0.025 ± 0.058
F38: Y -0.009 ± 0.057; N 0.004 ± 0.14; K -0.049 ± 0.051; H -0.132 ± 0.067; W 0.024 ± 0.046; T -0.119 ± 0.064; D -0.12 ± 0.054; V -0.044 ± 0.03; M -0.075 ± 0.046; Q -0.005 ± 0.064; G -0.048 ± 0.032; R -0.041 ± 0.031; E -0.078 ± 0.043; C -0.103 ± 0.058; I -0.041 ± 0.067; S -0.057 ± 0.037; L -0.086 ± 0.027
K39: Q -0.071 ± 0.044; A -0.013 ± 0.049; H -0.08 ± 0.064; N -0.077 ± 0.058; I -0.133 ± 0.064; L -0.059 ± 0.034; C -0.08 ± 0.051; M -0.137 ± 0.038; Y -0.148 ± 0.062
